The values that follow come from PMC9012472 (Science Advances, 2022).

The experiment concerns the target T1, human Inturned (human, UniProt Q9ULD6 1-942).
T1 sequence (looked up): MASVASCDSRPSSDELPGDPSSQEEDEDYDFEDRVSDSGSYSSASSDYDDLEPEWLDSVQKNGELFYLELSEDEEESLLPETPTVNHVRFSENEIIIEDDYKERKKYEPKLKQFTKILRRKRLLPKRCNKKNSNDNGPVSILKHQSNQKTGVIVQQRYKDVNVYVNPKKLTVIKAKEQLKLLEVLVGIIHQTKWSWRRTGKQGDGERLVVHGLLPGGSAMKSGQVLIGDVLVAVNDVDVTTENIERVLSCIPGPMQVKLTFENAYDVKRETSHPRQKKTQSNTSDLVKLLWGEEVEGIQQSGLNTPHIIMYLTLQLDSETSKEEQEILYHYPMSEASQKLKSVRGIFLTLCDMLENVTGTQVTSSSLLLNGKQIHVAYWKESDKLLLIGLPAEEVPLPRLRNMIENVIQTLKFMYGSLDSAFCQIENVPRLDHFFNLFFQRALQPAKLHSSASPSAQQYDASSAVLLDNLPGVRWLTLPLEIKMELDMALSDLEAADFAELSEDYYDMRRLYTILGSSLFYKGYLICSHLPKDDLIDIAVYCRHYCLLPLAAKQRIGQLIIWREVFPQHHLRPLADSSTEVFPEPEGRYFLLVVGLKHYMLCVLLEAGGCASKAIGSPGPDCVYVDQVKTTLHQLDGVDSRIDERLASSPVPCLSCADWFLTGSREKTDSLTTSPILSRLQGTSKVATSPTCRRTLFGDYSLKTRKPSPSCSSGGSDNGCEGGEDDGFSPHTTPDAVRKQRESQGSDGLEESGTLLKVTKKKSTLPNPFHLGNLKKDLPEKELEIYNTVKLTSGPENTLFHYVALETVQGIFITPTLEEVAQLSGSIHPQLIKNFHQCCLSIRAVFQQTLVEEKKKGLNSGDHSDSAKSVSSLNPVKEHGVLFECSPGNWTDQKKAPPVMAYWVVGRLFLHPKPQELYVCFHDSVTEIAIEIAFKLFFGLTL
The experiment is described as follows: cryo-EM structure.

B1: human Fuzzy (natural protein, UniProt Q9BT04 1-418, looked up)
chain: MGEEGTGGTVHLLCLAASSGVPLFCRSSRGGAPARQQLPFSVIGSLNGVHMFGQNLEVQLSSARTENTTVVWKSFHDSITLIVLSSEVGISELRLERLLQMVFGAMVLLVGLEELTNIRNVERLKKDLRASYCLIDSFLGDSELIGDLTQCVDCVIPPEGSLLQEALSGFAEAAGTTFVSLVVSGRVVAATEGWWRLGTPEAVLLPWLVGSLPPQTARDYPVYLPHGSPTVPHRLLTLTLLPSLELCLLCGPSPPLSQLYPQLLERWWQPLLDPLRACLPLGPRALPSGFPLHTDILGLLLLHLELKRCLFTVEPLGDKEPSPEQRRRLLRNFYTLVTSTHFPPEPGPPEKTEDEVYQAQLPRACYLVLGTEEPGTGVRLVALQLGLRRLLLLLSPQSPTHGLRSLATHTLHALTPLL
Regarding B1, the binding result is “binds”.

B2: human Wdpcp (natural protein, UniProt O95876 1-746, looked up)
chain: MRREFCWDAYSKAAGSRASSPLPRQDRDSFCHQMSFCLTELHLWSLKNTLHIADRDIGIYQYYDKKDPPATEHGNLEKKQKLAESRDYPWTLKNRRPEKLRDSLKELEELMQNSRCVLSKWKNKYVCQLLFGSGVLVSLSLSGPQLEKVVIDRSLVGKLISDTISDALLTDSFIILSFLAQNKLCFIQFTKKMESSDVNKRLEKLSALDYKIFYYEIPGPINKTTERHLAINCVHDRVVCWWPLVNDDAWPWAPISSEKDRANLLLLGYAQGRLEVLSSVRTEWDPLDVRFGTKQPYQVFTVEHSVSVDKEPMADSCIYECIRNKIQCVSVTRIPLKSKAISCCRNVTEDKLILGCEDSSLILYETHRRVTLLAQTELLPSLISCHPSGAILLVGSNQGELQIFDMALSPINIQLLAEDRLPRETLQFSKLFDASSSLVQMQWIAPQVVSQKGEGSDIYDLLFLRFERGPLGVLLFKLGVFTRGQLGLIDIIFQYIHCDEIYEAINILSSMNWDTLGHQCFISMSAIVNHLLRQKLTPEREAQLETSLGTFYAPTRPLLDSTILEYRDQISKYARRFFHHLLRYQRFEKAFLLAVDVGARDLFMDIHYLALDKGELALAEVARKRASDIDAESITSGVELLGPLDRGDMLNEAFIGLSLAPQGEDSFPDNLPPSCPTHRHILQQRILNGSSNRQIIDRRNELEKDICSGFLMTNTCNAEDGELREDGREQEIRDGGSLKMIHFGLV
On to B2, for which the binding result was “binds”.
